Test results published in publication PMC3592467.

Target: T1, MBD3-GFP, O95983
T1 chain: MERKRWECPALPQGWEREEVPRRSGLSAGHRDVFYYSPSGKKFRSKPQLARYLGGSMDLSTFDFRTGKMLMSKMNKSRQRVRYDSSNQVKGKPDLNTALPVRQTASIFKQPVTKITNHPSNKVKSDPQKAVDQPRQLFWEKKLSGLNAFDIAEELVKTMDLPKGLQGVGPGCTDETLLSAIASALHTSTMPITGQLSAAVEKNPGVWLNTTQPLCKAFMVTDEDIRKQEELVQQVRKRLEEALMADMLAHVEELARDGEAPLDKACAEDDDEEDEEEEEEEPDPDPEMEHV
Test: affinity purification with mass spectrometry
Settings: remark: other sources report otherwise

B1: DOC-1, O14519 1-115 (natural protein)
chain: MSYKPNLAAHMPAAALNAAGSVHSPSTSMATSSQYRQLLSDYGPPSLGYTQGTGNSQVPQSKYAELLAIIEELGKEIRPTYAGSKSAMERLKRGIIHARGLVRECLAETERNARS
  stoichiometry N: 2 per MBD3
